Series [1] has as its target feline CD134 (OX40) expressed on MCC cells (feline). In words: flow cytometry on cells. On the technique in general: Flow cytometry measures light scatter and fluorescence of single cells or particles in a stream.
For series [2], the target named is native, endogenously expressed feline CD134 on MYA-1 T cells (feline (endogenous in MYA-1)). In words: flow cytometry on cells.
For series [3], the target named is Fc-TNC-fCD134L (chicken | feline) (UniProt P10039). In words: non-reducing SDS-PAGE with immunoblot. On the technique in general: Immunoblotting shows a protein as a band on a membrane.
Series [4] deals with human CD134 (OX40) expressed on MCC cells (human) (UniProt P43489). The experiment in a line: flow cytometry on cells.
Series [5] deals with the molecule itself. The experiment in a line: non-reducing SDS-PAGE with immunoblot.

Several values for one entry are separate records, joined by “and”; a condition that tells them apart may be missing. Identical values can stand only once.

Chain of human CD134 (OX40) expressed on MCC cells (human) (P43489 29-277): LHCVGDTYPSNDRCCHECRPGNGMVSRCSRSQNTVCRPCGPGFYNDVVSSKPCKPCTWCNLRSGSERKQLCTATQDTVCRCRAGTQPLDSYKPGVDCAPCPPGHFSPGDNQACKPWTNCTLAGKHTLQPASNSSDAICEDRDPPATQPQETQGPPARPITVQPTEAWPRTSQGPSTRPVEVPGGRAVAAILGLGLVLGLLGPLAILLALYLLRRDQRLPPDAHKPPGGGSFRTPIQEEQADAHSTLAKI

In series [1], “FLAG-mCD134L (FLAG-tagged murine CD134L) (from UniProt P43488 51-198) (ligand)” came in with a mean fluorescence intensity (MFI) of 309 and a percent of cells positive of 99.7%. Further, in series [2], the mean fluorescence intensity (MFI) is 12 and the percent of cells positive was 86.5%.

In series [1], “FLAG-TNC-fCD134L (from UniProt P10039 110-139) (ligand)” yielded a mean fluorescence intensity (MFI) of 5 and a percent of cells positive of 66.2%. In series [2], this molecule yielded a mean fluorescence intensity (MFI) of 3 and a percent of cells positive of 44.9%.

“Fc-TNC-mCD134L (from UniProt P10039 110-139; P43488 51-198) (Fc fusion)”: in series [1], the mean fluorescence intensity (MFI) was 300 and the percent of cells positive stood at 99.8%. In series [2], this molecule gave a mean fluorescence intensity (MFI) of 7 and a percent of cells positive of 78.2%.

In general, stoichiometry N refers to a count of units in the complex or per binding partner. Molecule “Fc-TNC-fCD134L (from UniProt P10039 110-139) (Fc fusion)” returned a stoichiometry N in series [3] of 6. Further, the figures for the mean fluorescence intensity (MFI) in series [1], in series [4] and in series [2] were 221, 9.9 and 14, respectively. In addition, the percent of cells positive in series [1] amounted to 99.8%; in series [4], 45.5%; in series [2] it was 82.4%.

B1: Fc-TNC-hCD134L (Fc fusion, chicken | human)
chain: RSPQPQPKPQPKPEPEGSLHACGCAAAPDIKDLLSRLEELEGLVSSLREQGTGGGSGGRGLQVSHRYPRIQSIKVQFTEYKKEKGFILTSQKEDEIMKVQNNSVIINCDGFYLISLKGYFSQEVNISLHYQKDEEPLFQLKKVRSVNSLMVASLTYKDKVYLNVTTDNTSLDDFHVNGGELILIHQNPGEFCVL
For the molecule B1, the “stoichiometry N” value in series [5] is 2 and 6.

B2: Fc-TNC-mCD134L (Fc fusion, chicken | mouse)
chain: RSPQPQPKPQPKPEPEGSLHACGCAAAPDIKDLLSRLEELEGLVSSLREQGTGGGSGGRGLQSSSPAKDPPIQRLRGAVTRCEDGQLFISSYKNEYQTMEVQNNSVVIKCDGLYIIYLKGSFFQEVKIDLHFREDHNPISIPMLNDGRRIVFTVVASLAFKDKVYLTVNAPDTLCEHLQINDGELIVVQLTPGYCAPEGSYHSTVNQVPL
With B2, in series [5], the “stoichiometry N” value was determined as 6.

The record behind these values is article PMC2676423 (Molecular immunology, 2009).
